Reference: paper PMC10746679

Legend:
[1] = molecular target: 70-kDa N-terminal FN fragment (FN70); assay: solid-phase binding assay; conditions: FN70 25 μg/ml coated on plate, read off a plot
[2] = molecular target: Full-length fibronectin (UniProt P02751); assay: solid-phase binding assay; conditions: FN-FL 25 μg/ml coated on plate, read off a plot
[3] = [HSP90α] 2.5 µM (read from x axis), parent: est. 1.4
[4] = [HSP90α] about 0.31 µM (read from x axis), parent: est. 1.1
[5] = [HSP90α] about 0.63 µM (read from x axis), parent: est. 1.3
[6] = [HSP90α] about 1.25 µM (read from x axis), parent: est. 1.4

Chain of Full-length fibronectin (P02751 32-2477): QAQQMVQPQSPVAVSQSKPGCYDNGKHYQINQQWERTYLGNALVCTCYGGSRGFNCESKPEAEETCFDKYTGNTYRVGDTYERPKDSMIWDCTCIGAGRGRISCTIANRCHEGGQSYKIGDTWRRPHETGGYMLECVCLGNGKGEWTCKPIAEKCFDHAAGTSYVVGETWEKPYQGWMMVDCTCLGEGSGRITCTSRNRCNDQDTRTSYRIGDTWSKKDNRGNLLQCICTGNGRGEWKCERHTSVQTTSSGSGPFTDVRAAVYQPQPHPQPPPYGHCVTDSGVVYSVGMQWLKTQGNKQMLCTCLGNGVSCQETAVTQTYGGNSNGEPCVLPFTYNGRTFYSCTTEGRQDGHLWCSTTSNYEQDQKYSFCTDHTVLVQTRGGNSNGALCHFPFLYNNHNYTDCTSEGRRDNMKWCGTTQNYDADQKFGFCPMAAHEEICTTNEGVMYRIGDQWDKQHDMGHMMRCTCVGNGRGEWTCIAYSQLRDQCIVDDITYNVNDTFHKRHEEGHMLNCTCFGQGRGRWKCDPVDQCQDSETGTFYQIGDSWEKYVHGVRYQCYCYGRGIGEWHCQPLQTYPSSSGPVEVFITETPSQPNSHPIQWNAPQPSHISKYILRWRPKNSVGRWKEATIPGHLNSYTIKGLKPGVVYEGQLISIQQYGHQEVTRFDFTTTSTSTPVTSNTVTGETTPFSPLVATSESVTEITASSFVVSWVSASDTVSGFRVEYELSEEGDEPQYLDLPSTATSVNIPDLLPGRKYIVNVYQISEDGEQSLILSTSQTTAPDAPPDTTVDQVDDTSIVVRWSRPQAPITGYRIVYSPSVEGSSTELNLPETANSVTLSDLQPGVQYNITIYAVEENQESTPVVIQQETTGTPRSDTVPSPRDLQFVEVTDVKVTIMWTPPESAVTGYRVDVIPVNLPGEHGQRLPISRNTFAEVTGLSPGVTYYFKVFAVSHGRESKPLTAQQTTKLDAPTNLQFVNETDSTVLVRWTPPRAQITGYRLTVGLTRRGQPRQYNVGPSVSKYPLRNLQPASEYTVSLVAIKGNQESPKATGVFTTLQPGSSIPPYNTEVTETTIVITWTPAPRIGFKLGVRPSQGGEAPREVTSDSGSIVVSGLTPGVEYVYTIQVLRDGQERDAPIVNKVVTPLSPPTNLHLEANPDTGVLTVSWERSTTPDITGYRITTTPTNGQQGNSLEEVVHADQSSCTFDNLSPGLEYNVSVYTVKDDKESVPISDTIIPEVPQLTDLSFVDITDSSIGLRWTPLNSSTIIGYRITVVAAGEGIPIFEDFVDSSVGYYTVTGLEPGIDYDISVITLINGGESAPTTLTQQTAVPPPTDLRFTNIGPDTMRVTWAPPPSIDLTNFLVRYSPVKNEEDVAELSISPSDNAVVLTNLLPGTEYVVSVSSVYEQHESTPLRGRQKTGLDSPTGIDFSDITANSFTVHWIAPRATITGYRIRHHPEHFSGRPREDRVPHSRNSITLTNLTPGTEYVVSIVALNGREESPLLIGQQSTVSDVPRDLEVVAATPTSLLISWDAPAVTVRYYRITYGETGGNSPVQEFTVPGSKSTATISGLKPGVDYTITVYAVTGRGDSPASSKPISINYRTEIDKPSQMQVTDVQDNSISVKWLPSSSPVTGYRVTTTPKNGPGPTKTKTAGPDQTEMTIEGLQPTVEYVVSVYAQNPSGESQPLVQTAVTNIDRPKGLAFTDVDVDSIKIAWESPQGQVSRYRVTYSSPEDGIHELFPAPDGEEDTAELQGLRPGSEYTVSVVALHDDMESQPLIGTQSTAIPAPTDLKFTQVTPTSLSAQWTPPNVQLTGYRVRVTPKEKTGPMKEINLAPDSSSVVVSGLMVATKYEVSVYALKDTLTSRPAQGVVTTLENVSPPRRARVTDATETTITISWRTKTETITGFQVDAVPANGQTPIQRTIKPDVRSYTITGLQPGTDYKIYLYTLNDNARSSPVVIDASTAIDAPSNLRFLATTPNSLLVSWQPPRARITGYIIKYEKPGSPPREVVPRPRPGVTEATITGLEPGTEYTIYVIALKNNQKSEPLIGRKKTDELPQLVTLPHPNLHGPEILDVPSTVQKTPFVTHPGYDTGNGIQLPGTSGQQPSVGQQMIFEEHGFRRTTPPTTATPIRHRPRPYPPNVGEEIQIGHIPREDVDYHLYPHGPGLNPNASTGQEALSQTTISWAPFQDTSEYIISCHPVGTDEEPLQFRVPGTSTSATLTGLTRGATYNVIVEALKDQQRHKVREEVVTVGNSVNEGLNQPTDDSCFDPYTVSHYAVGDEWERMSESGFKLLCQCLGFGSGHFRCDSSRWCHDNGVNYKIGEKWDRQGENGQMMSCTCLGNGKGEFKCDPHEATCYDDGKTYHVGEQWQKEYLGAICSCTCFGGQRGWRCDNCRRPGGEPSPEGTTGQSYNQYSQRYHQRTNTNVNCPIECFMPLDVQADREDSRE

Row | Substance | response (Absorbance (450 nm)) [1, 3] | response (Absorbance (450 nm)) [1, 4] | response (Absorbance (450 nm)) [1, 5] | response (Absorbance (450 nm)) [1, 6] | response (Absorbance (450 nm)) [2, 3] | response (Absorbance (450 nm)) ([2]; [HSP90α] about 0.31 µM (read from x axis), parent: est. 1.0) | response (Absorbance (450 nm)) ([2]; [HSP90α] about 0.63 µM (read from x axis), parent: est. 1.25) | response (Absorbance (450 nm)) ([2]; [HSP90α] about 1.25 µM (read from x axis), parent: est. 1.2)
1 | Recombinant full-length wild type His-HSP90α (from UniProt P07900) F352A; Y528A | 1.1 | 0.72 | 0.83 | 0.99 |  |  |  | 
2 | Recombinant full-length wild type His-HSP90α (from UniProt P07900) Y528A | 1.1 | 0.82 | 0.93 | 1.1 |  |  |  | 
3 | Recombinant full-length wild type His-HSP90α, P07900 F352A; Y528A |  |  |  |  | 0.53 | 0.36 | 0.45 | 0.44
